Assay results as given in article PMC5063977 (The Journal of Biological Chemistry, 2016).

Key:
[1] = target: RAMP1-CLR complex expressed in HEK-293S cells (human) (UniProt Q16602)
[2] = target: RAMP3-CLR complex expressed in HEK-293S cells (human) (UniProt Q16602)
[3] = target: RAMP2-CLR complex expressed in HEK-293S cells (human) (UniProt Q16602)
[4] = target: RAMP3-CLR complex expressed in HEK-293 cells (human) (UniProt Q16602)
[5] = target: RAMP2-CLR complex expressed in HEK-293 cells (human) (UniProt Q16602)
Sequence of RAMP2-CLR complex expressed in HEK-293 cells (human) (Q16602 23-461, chain 1 of 2): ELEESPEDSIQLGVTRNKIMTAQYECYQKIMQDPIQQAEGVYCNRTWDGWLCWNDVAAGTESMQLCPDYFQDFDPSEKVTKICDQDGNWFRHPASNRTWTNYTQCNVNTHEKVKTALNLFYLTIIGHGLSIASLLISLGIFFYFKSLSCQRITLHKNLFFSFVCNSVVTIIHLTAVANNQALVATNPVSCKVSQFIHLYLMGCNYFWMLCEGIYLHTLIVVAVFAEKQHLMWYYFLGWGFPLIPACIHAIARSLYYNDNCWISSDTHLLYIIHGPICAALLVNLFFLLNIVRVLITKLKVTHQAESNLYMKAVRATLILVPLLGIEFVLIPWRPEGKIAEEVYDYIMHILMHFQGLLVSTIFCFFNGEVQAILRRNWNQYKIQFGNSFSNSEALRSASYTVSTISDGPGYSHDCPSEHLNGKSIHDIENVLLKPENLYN
Sequence of RAMP2-CLR complex expressed in HEK-293 cells (human) (O60895 43-175, chain 2 of 2, further chain): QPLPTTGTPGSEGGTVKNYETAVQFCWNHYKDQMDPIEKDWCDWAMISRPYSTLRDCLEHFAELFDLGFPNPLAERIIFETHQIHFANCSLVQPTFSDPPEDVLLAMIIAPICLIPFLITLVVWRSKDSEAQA

[6] = target: RAMP1-CLR complex expressed in HEK-293 cells (human) (UniProt Q16602)
Sequence of RAMP1-CLR complex expressed in HEK-293 cells (human) (Q16602 23-461, chain 1 of 2): as the sequence (Q16602 23-461, chain 1 of 2) above
Sequence of RAMP1-CLR complex expressed in HEK-293 cells (human) (O60894 27-148, chain 2 of 2, further chain): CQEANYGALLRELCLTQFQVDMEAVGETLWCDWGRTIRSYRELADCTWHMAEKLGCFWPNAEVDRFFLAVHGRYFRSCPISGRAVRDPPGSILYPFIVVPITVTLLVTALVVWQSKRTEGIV

[7] = target: RAMP3-CLR complex expressed in HEK-293 cells (human) (UniProt Q16602); remark: listed apart in the source
[8] = target: RAMP2-CLR complex expressed in HEK-293 cells (human) (UniProt Q16602); remark: listed apart in the source
[9] = target: RAMP1-CLR complex expressed in HEK-293 cells (human) (UniProt Q16602); remark: listed apart in the source
[10] = target: RAMP1-CLR heterodimer expressed in S. cerevisiae (human) (UniProt Q16602)
Sequence of RAMP1-CLR heterodimer expressed in S. cerevisiae (human) (Q16602 23-461, chain 1 of 2): as the sequence (Q16602 23-461, chain 1 of 2) above
Sequence of RAMP1-CLR heterodimer expressed in S. cerevisiae (human) (O60894 27-148, chain 2 of 2, further chain): as the sequence (O60894 27-148, chain 2 of 2, further chain) above

[11] = target: RAMP2-CLR heterodimer expressed in S. cerevisiae (human) (UniProt Q16602)
Sequence of RAMP2-CLR heterodimer expressed in S. cerevisiae (human) (Q16602 23-461, chain 1 of 2): as the sequence (Q16602 23-461, chain 1 of 2) above
Sequence of RAMP2-CLR heterodimer expressed in S. cerevisiae (human) (O60895 43-175, chain 2 of 2, further chain): as the sequence (O60895 43-175, chain 2 of 2, further chain) above

[12] = target: RAMP3-CLR heterodimer expressed in S. cerevisiae (human) (UniProt Q16602)
Sequence of RAMP3-CLR heterodimer expressed in S. cerevisiae (human) (Q16602 23-461, chain 1 of 2): as the sequence (Q16602 23-461, chain 1 of 2) above
Sequence of RAMP3-CLR heterodimer expressed in S. cerevisiae (human) (O60896 24-148, chain 2 of 2, further chain): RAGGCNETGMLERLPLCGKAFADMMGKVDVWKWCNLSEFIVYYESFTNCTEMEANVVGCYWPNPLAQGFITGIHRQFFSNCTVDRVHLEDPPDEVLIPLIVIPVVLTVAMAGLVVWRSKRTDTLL

[13] = target: RAMP1-CLR complex expressed in HEK-293S cells (human) (UniProt Q16602); remark: listed apart in the source
[14] = target: RAMP3-CLR complex expressed in HEK-293S cells (human) (UniProt Q16602); remark: listed apart in the source
[15] = target: RAMP2-CLR complex expressed in HEK-293S cells (human) (UniProt Q16602); remark: listed apart in the source
[16] = target: RAMP3-CLR complex expressed in HEK-293 cells (human) (UniProt Q16602); remark: listed apart in the source
[17] = target: RAMP2-CLR complex expressed in HEK-293 cells (human) (UniProt Q16602); remark: listed apart in the source
[18] = target: RAMP1-CLR complex expressed in HEK-293 cells (human) (UniProt Q16602); remark: listed apart in the source

Sequence of RAMP3-CLR complex expressed in HEK-293 cells (human) (Q16602 23-461, chain 1 of 2): as the sequence (Q16602 23-461, chain 1 of 2) above
Sequence of RAMP3-CLR complex expressed in HEK-293 cells (human) (O60896 24-148, chain 2 of 2, further chain): as the sequence (O60896 24-148, chain 2 of 2, further chain) above
Sequence of RAMP1-CLR complex expressed in HEK-293S cells (human) (Q16602 23-461, chain 1 of 2): as the sequence (Q16602 23-461, chain 1 of 2) above
Sequence of RAMP1-CLR complex expressed in HEK-293S cells (human) (O60894 27-148, chain 2 of 2, further chain): as the sequence (O60894 27-148, chain 2 of 2, further chain) above
Sequence of RAMP3-CLR complex expressed in HEK-293S cells (human) (Q16602 23-461, chain 1 of 2): as the sequence (Q16602 23-461, chain 1 of 2) above
Sequence of RAMP3-CLR complex expressed in HEK-293S cells (human) (O60896 24-148, chain 2 of 2, further chain): as the sequence (O60896 24-148, chain 2 of 2, further chain) above
Sequence of RAMP2-CLR complex expressed in HEK-293S cells (human) (Q16602 23-461, chain 1 of 2): as the sequence (Q16602 23-461, chain 1 of 2) above
Sequence of RAMP2-CLR complex expressed in HEK-293S cells (human) (O60895 43-175, chain 2 of 2, further chain): as the sequence (O60895 43-175, chain 2 of 2, further chain) above

hAM2 (1–47) (peptide)
pEC50, (Ca^2+)i mobilization in HEK-293S cells [1]: 6.94 -log10
pKa (operational model of agonism), (Ca^2+)i mobilization in HEK-293S cells [1]: 6.76 -log10
pEC50, (Ca^2+)i mobilization in HEK-293S cells [2]: 7.44 -log10
pKa (operational model of agonism), (Ca^2+)i mobilization in HEK-293S cells [2]: 7.35 -log10
pEC50, (Ca^2+)i mobilization in HEK-293S cells [3]: 7.42 -log10
pKa (operational model of agonism), (Ca^2+)i mobilization in HEK-293S cells [3]: 7.33 -log10
pEC50, (Ca^2+)i mobilization in HEK-293 cells [4]: 8.05 -log10
pKa (operational model of agonism), (Ca^2+)i mobilization in HEK-293 cells [4]: 7.95 -log10
pEC50, (Ca^2+)i mobilization in HEK-293 cells [5]: 7.41 -log10
pKa (operational model of agonism), (Ca^2+)i mobilization in HEK-293 cells [5]: 7.15 -log10
pEC50, (Ca^2+)i mobilization in HEK-293 cells [6]: 6.76 -log10
pKa (operational model of agonism), (Ca^2+)i mobilization in HEK-293 cells [6]: 6.64 -log10
pEC50, cAMP accumulation in HEK-293 cells [7]: 9.14 -log10
pKa (operational model of agonism), cAMP accumulation in HEK-293 cells [7]: 9 -log10
pEC50, cAMP accumulation in HEK-293 cells [8]: 7.48 -log10
pKa (operational model of agonism), cAMP accumulation in HEK-293 cells [8]: 7.16 -log10
pEC50, cAMP accumulation in HEK-293 cells [9]: 7.93 -log10
pKa (operational model of agonism), cAMP accumulation in HEK-293 cells [9]: 7.76 -log10
pEC50, yeast growth reporter, GPA1/Gαi chimera strain [10]: 8.57 -log10
pEC50, yeast growth reporter, GPA1/Gαq chimera strain [10]: 7.99 -log10
pEC50, yeast growth reporter, GPA1/Gαs chimera strain [10]: 7.22 -log10
pKa (operational model of agonism), yeast growth reporter, GPA1/Gαi chimera strain [10]: 8.24 -log10
pKa (operational model of agonism), yeast growth reporter, GPA1/Gαq chimera strain [10]: 7.91 -log10
pKa (operational model of agonism), yeast growth reporter, GPA1/Gαs chimera strain [10]: 7.31 -log10
pEC50, yeast growth reporter, GPA1/Gαi chimera strain [11]: 8.42 -log10
pEC50, yeast growth reporter, GPA1/Gαq chimera strain [11]: 9.22 -log10
pEC50, yeast growth reporter, GPA1/Gαs chimera strain [11]: 8.05 -log10
pKa (operational model of agonism), yeast growth reporter, GPA1/Gαi chimera strain [11]: 8.3 -log10
pKa (operational model of agonism), yeast growth reporter, GPA1/Gαq chimera strain [11]: 9.16 -log10
pKa (operational model of agonism), yeast growth reporter, GPA1/Gαs chimera strain [11]: 8.1 -log10
pEC50, yeast growth reporter, GPA1/Gαi chimera strain [12]: 8.49 -log10
pEC50, yeast growth reporter, GPA1/Gαq chimera strain [12]: 6.76 -log10
pEC50, yeast growth reporter, GPA1/Gαs chimera strain [12]: 8.85 -log10
pKa (operational model of agonism), yeast growth reporter, GPA1/Gαi chimera strain [12]: 8.3 -log10
pKa (operational model of agonism), yeast growth reporter, GPA1/Gαq chimera strain [12]: 6.6 -log10
pKa (operational model of agonism), yeast growth reporter, GPA1/Gαs chimera strain [12]: 8.61 -log10
pEC50, cAMP accumulation in HEK-293S cells, with PTX pretreatment [13]: 8.78 -log10
pEC50, cAMP accumulation in HEK-293S cells, without PTX [13]: 8.74 -log10
pEC50, cAMP accumulation in HEK-293S cells, with PTX pretreatment [14]: 7.79 -log10
pEC50, cAMP accumulation in HEK-293S cells, without PTX [14]: 8.01 -log10
pEC50, cAMP accumulation in HEK-293S cells, without PTX [15]: 8.57 -log10
pEC50, cAMP accumulation in HEK-293 cells, with PTX pretreatment [16]: 8.74 -log10
pEC50, cAMP accumulation in HEK-293 cells, without PTX [16]: 9.1 -log10
pKa (operational model of agonism), cAMP accumulation in HEK-293 cells, with PTX pretreatment [16]: 8.43 -log10
pKa (operational model of agonism), cAMP accumulation in HEK-293 cells, without PTX [16]: 9.08 -log10
pKa (operational model of agonism), cAMP accumulation in HEK-293 cells, with PTX pretreatment [17]: 8.84 -log10
pEC50, cAMP accumulation in HEK-293 cells, with PTX pretreatment [18]: 9.15 -log10
pEC50, cAMP accumulation in HEK-293 cells, without PTX [18]: 7.93 -log10
pKa (operational model of agonism), cAMP accumulation in HEK-293 cells, with PTX pretreatment [18]: 8.56 -log10
pKa (operational model of agonism), cAMP accumulation in HEK-293 cells, without PTX [18]: 7.7 -log10
